Reference: paper PMC3964918 (RNA, 2014)
Read-outs that look alike come from different tables or passages of the source.

Key:
Assay in all cases: far-Western, overlay or dot blot
[1] = target: T1, SynPnp, recombinant Synechocystis PNPase (Synechocystis PCC6803, UniProt P72659 1-718)
T1 sequence (looked up): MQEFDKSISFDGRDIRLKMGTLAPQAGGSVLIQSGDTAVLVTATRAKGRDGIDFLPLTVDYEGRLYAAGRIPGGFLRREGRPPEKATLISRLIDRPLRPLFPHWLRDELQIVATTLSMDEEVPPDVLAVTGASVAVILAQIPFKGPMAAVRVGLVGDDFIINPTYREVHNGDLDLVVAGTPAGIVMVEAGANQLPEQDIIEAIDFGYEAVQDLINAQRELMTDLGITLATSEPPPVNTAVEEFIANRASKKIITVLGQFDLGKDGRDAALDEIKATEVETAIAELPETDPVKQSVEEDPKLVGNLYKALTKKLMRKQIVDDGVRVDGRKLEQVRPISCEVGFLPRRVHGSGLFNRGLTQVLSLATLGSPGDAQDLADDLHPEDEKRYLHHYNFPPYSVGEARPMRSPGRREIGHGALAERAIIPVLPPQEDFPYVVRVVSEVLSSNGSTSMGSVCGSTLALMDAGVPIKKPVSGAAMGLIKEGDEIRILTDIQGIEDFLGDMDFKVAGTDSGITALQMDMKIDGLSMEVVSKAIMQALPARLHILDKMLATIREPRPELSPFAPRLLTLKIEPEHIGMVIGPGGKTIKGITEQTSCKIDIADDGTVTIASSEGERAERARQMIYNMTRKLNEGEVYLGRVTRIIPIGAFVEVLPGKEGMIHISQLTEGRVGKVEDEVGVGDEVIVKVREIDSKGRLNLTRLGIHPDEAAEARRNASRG

[2] = target: T1, SynPnp, recombinant Synechocystis PNPase; remark: listed apart in the source
[3] = target: T2, AnaPnp, recombinant Anabaena PNPase (Anabaena PCC7120, UniProt Q8YP11 1-718)
T2 sequence (looked up): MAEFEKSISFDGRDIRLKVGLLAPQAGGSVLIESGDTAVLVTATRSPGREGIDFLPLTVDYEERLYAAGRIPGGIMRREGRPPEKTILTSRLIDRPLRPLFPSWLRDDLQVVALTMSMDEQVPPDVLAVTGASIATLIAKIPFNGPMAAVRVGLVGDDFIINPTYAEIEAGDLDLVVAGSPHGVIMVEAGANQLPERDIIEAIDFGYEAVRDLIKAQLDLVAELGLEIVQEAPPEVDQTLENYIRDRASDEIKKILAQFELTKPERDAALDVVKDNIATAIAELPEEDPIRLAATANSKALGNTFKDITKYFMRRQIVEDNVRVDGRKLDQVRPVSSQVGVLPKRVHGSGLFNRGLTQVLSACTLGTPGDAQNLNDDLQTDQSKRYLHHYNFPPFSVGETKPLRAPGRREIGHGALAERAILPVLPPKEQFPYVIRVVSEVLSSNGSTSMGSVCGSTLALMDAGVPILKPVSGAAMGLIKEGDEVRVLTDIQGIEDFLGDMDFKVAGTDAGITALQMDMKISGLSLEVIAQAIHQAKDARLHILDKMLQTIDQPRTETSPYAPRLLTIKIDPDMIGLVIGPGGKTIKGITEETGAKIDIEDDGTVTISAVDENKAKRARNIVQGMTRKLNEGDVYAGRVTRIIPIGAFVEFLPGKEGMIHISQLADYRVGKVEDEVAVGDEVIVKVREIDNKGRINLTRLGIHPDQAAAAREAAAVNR

RRRRRRSSA [GFP-C4b (GFP fused at its C-terminus to the C4 nonapeptide)]
binding result [1]: binds

RRRRRRSSA [synthetic nonapeptide of C4]
binding result [2]: binds

STANRRRRRRSSASDSD [GFP-C4a (GFP fused at its C-terminus to C4 with four flanking residues at both ends)]
binding result [3]: binds
